# Test results taken from patent US20140235820A1, “METHODS AND COMPOSITIONS FOR MODULATING THE Wnt PATHWAY” (Genentech, Inc., priority 2010, published 2014).
# T1: LRP6 E1E4 (Homo sapiens, UniProt O75581)
# T1 construct: construct E1E4-amino acids A20-Q1253 of LPR6; made in house; host or cells: Tni insect cells (baculovirus, secreted)
# T1 sequence (O75581 20-1253): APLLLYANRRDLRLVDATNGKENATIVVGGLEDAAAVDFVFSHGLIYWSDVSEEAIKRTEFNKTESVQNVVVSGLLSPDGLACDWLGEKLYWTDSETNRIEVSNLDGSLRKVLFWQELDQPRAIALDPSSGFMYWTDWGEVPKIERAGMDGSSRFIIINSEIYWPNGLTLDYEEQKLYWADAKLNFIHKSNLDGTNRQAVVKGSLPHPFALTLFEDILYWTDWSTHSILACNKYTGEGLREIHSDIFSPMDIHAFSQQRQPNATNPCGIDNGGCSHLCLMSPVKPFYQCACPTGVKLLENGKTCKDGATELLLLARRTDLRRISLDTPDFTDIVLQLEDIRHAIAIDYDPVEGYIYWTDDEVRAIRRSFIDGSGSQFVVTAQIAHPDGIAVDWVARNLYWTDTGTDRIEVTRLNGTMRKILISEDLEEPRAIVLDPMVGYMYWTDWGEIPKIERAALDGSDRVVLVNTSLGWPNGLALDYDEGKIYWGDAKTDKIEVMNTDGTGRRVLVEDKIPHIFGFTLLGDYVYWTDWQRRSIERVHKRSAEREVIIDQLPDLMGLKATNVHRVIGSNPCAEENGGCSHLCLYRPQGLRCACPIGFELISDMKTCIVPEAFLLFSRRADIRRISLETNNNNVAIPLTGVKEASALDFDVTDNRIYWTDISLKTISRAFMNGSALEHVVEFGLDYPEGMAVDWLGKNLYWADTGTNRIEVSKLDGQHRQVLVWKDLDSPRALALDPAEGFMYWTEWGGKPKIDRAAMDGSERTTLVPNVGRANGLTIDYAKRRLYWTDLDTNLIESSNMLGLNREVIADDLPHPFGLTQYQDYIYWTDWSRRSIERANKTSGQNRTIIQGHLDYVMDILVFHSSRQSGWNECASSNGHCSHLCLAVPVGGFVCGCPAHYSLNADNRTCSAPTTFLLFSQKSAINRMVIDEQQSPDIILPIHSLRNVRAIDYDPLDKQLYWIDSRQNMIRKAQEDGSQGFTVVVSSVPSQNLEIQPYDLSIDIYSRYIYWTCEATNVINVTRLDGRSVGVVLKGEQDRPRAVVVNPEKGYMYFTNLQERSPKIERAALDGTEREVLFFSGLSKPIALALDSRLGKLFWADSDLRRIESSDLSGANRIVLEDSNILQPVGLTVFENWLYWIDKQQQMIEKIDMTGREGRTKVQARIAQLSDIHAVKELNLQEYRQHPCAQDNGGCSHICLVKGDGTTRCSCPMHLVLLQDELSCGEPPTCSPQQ
# Legend:
# [1] = tested on: Wnt1-dependent signaling; assay: Wnt-dependent TOPbrite luciferase reporter assay, cells transfected with Wnt1; assay type: cell-based; conditions: cells stably transfected with reporter, transiently with Wnt1
# Protocol: FIG. 12. Induction of a Wnt/β-catenin reporter in the presence or absence of wild-type and mutant inhibitors. Cells were transfected by Wnt1 (binds to LRP6 E1E2). Dkk1 and sclerostin variants, or the control inhibitor Fz8 CRD, were used at the indicated doses.
# Wnt signaling was assessed either in mouse fibroblast L-cells or in HEK293s cells. The luciferase reporter assay in 293 cells was performed as described (52). The mouse fibroblast L-cell imaging assay was conducted essentially as described(53). Cells were treated with Wnt3a, Fz8 CRD ((US Patent Publication 20080299136; (54), LRP6, or Dkk1, or combinations of these proteins, as indicated and processed after an additional 6 h at 37° C./5% CO2.
# To test whether the observed effects on binding between purified proteins were relevant to cellular signaling, Dkk1 and sclerostin activities were tested further in a Wnt-dependent TOPbrite luciferase reporter assay (52). Cells stably transfected with reporter were transfected transiently with Wnt1. The Wnt-transfected cells were treated with purified Dkk1 or sclerostin variants, and the effect on reporter induction was measured (FIG. 12). […] This is consistent with earlier observations that Wnt1 belongs to a class of Wnts signaling through the E1E2 portion of to LRP5/6 (11, 52). The Dkk1 and sclerostin mutants show activities consistent with their binding to LRP6 (FIG. 12). Sclerostin Ile119Glu (“NXI” motif) is impaired relative to wild-type in its ability to inhibit Wnt1-driven signaling, as is Dkk1 Ile42Glu.
# [2] = molecular target: T1, LRP6 E1E4; assay: Biolayer interferometry binding to LRP6 E1E4
# Protocol: Binding kinetics were measured by biolayer interferometry using an Octet Red instrument (ForteBio) as previously described (11). Streptavidin (SA) biosensors were loaded with biotinylated hLRP6 in 50 mMTris, pH 8, 300 mM NaCl, 5% (v/v) glycerol, and 0.05% (w/v) Triton X-100. The loaded biosensors were washed in the same buffer before carrying out association and dissociation measurements for the indicated times. The Kd of each interaction was determined using steady state-analysis through the Octet Red software v6.3. Each reported value represents an average of three or more experiments at different concentrations, with a fitted experimental curve for which the square of the correlation coefficient (R^2) is above 0.96.
# The interaction of the different Dkks and sclerostin with various domains of LRP6 was measured using a biolayer interferometry assay (11). Purified receptors contained individual β-propeller-EGF-like units (E1, E2, or E4), two β-propellers (E1E2 or E3E4), or four β-propellers (E1E4))—as follows:
# Human LRP6: construct E1E4-amino acids A20-Q1253 of LPR6; construct E1E2-amino acids A20-E631 of LPR6; construct E3E4 amino acids E631-Q1253 of LPR6; construct E1-amino acids A20-D325 of LPR6; construct E2-amino acids […]-E631 of LPR6; construct E4-T933-Q1253. The individual LRP6 β-propeller E3 could not be expressed.
Molecule,inhibition of Wnt1-dependent signaling (reporter induction) [1],binding to LRP6 E1E4 (in words) [2]
"Dkk1: Dickkopf 1 protein, Wnt pathway inhibitor, expressed in insect cells (NSNAIKN)",strong inhibition,–
"sclerostin: Sclerostin protein, Wnt pathway inhibitor, expressed in insect cells (LPNAIGR)",strong inhibition,binds
"Dkk1 Ile42Glu (ligand, human, UniProt O94907 32-266, looked up, also called Dkk1 I42E) TLNSVLNSNAEKNLPPPLGGAAGHPGSAVSAAPGILYPGGNKYQTIDNYQPYPCAEDEECGTDEYCASPTRGGDAGVQICLACRKRRKRCMRHAMCCPGNYCKNGICVSSDQNHFRGEIEETITESFGNDHSTLDGYSRRTTLSSKMYHTKGQEGSVCLRSSDCASGLCCARHFWSKICKPVLKEGQVCTKHRRKGSHGLEIFQRCYCGEGLSCRIQKDHHQASNSSRLHTCQRH",impaired,retain binding
"Dkk1 K211E (ligand, human, UniProt O94907 32-266, looked up, also called Dkk1 Lys211Glu) TLNSVLNSNAIKNLPPPLGGAAGHPGSAVSAAPGILYPGGNKYQTIDNYQPYPCAEDEECGTDEYCASPTRGGDAGVQICLACRKRRKRCMRHAMCCPGNYCKNGICVSSDQNHFRGEIEETITESFGNDHSTLDGYSRRTTLSSKMYHTKGQEGSVCLRSSDCASGLCCARHFWSKICEPVLKEGQVCTKHRRKGSHGLEIFQRCYCGEGLSCRIQKDHHQASNSSRLHTCQRH",efficiently inhibits,retain binding
